From the supplement of paper PMC10065799, “High-throughput profiling of sequence recognition by tyrosine kinases and SH2 domains using bacterial peptide display” (eLife, 2023)

What was measured:
SHP2-C SH2 = assay: SH2 binding enrichment of the phosphorylated peptide, bacterial display (enrichment ratio); higher = better substrate or ligand; peptides without Tyr show the background
c-Src SH2 = assay: as above
Grb2 SH2 = Grb2 SH2 (UniProt P62993); assay: as above
Jak2 = Jak2 (UniProt O60674); assay: phosphorylation enrichment, bacterial display (enrichment ratio); higher = better substrate or ligand; peptides without Tyr show the background
c-Abl (mouse) = assay: as above
Fyn = Fyn (UniProt P06241); assay: as above
Fes = Fes (UniProt P07332); assay: as above
AncSZ = assay: as above
Fer (mouse) = assay: as above
MERTK = MERTK (UniProt Q12866); assay: as above
FGFR1 = FGFR1 (UniProt P11362); assay: as above
EPHB1 = EPHB1 (UniProt P54762); assay: as above
EPHB2 = EPHB2 (UniProt P29323); assay: as above
Hck = Hck (UniProt P08631); assay: as above
c-Src = assay: as above
FGFR3 = FGFR3 (UniProt P22607); assay: as above
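Wherever SH2 binding enrichment of the phosphorylated peptide, bacterial display is given: peptide library displayed on the E. coli surface as eCPX fusions, selected cells deep-sequenced, score is each peptide's frequency after selection divided by its frequency in the input.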
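Wherever phosphorylation enrichment, bacterial display is given: 11-residue human phosphosite peptides and single-mutation variants displayed on the E. coli surface, counted by deep sequencing, each peptide's frequency after selection divided by its frequency in the unselected input library; frequency after pTyr selection over input frequency; kinase dosed for 20-30% of maximal phosphorylation in three min.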

Sequence of Fyn (P06241 whole entry, looked up): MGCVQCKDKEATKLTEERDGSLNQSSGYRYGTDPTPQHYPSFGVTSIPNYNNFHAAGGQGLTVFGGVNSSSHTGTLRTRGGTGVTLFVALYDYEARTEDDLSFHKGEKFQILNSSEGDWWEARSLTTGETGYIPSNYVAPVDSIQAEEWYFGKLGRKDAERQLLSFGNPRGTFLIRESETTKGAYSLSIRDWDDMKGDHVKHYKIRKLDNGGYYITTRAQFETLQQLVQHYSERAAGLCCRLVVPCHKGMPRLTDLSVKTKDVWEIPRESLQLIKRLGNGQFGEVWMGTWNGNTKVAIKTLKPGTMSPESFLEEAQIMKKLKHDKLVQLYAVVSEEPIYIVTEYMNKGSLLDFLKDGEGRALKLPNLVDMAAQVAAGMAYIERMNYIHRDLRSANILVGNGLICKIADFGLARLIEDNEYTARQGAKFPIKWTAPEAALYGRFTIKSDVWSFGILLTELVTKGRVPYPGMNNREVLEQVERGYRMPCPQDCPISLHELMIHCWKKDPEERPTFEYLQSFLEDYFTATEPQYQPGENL
Sequence of Hck (P08631 whole entry, looked up): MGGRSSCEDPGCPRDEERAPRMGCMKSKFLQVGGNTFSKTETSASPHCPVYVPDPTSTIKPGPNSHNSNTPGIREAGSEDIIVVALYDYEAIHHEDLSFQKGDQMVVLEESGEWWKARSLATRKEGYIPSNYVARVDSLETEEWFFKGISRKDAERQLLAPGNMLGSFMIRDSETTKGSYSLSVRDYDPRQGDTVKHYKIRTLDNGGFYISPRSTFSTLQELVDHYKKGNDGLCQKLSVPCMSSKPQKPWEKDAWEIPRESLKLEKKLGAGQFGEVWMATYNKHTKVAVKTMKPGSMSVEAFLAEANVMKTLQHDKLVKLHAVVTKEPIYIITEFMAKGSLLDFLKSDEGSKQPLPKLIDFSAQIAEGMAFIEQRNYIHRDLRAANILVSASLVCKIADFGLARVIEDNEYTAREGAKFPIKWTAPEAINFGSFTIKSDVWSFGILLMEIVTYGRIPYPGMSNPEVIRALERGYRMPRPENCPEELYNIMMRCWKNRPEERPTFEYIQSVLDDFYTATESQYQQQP
Sequence of MERTK (Q12866 whole entry, looked up): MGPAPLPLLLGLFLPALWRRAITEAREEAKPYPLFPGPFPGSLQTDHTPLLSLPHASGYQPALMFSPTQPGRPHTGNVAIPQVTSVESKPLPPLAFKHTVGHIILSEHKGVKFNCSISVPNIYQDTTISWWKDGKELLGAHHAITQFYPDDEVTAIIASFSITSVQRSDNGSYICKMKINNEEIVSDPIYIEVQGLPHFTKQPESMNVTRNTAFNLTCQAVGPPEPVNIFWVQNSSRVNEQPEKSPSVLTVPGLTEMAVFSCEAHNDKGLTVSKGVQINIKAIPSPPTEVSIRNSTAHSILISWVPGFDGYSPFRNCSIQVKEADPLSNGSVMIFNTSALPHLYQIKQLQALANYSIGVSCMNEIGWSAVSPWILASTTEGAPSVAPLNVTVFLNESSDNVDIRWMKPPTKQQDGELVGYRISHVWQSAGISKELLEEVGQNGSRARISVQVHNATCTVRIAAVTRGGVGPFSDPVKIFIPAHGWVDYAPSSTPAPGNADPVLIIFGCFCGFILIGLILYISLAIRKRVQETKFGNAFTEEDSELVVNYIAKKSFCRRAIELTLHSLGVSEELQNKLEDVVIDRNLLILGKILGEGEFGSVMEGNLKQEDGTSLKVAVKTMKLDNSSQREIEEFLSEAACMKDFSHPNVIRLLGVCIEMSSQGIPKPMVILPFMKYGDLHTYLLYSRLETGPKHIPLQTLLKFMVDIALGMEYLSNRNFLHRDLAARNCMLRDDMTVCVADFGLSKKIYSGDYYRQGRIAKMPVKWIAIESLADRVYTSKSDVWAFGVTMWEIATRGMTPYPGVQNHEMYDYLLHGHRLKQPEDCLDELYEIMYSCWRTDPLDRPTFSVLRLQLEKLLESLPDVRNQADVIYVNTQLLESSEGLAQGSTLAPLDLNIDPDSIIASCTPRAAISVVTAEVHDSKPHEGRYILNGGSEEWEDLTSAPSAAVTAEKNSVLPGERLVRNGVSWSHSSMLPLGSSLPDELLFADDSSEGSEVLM
Sequence of EPHB2 (P29323 whole entry, looked up): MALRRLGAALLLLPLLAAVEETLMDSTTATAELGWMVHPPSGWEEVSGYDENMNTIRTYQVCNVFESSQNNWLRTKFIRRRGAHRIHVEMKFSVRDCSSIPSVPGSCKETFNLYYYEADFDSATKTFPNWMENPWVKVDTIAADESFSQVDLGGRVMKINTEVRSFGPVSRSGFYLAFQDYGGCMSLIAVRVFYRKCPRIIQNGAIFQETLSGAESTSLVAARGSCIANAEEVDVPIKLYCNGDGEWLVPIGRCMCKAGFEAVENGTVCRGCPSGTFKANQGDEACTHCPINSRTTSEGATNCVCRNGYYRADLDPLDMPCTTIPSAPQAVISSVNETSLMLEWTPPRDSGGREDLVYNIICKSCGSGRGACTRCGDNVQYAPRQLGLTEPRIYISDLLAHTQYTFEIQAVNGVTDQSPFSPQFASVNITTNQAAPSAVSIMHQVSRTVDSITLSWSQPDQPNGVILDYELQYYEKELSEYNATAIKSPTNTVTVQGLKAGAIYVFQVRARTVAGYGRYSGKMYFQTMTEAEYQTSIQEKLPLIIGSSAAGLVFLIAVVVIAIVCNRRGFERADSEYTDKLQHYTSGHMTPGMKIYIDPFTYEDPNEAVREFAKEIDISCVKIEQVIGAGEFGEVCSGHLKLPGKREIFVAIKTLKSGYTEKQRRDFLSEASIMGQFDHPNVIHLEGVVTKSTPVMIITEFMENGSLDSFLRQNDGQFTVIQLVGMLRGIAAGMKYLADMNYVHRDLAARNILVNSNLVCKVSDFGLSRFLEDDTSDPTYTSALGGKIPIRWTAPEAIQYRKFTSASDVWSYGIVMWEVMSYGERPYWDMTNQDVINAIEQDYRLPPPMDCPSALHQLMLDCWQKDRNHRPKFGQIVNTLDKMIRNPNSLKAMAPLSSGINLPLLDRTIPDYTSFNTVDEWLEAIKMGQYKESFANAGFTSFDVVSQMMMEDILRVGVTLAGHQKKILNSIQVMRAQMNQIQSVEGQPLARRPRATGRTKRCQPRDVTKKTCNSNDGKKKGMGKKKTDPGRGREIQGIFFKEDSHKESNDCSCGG
Sequence of Fes (P07332 whole entry, looked up): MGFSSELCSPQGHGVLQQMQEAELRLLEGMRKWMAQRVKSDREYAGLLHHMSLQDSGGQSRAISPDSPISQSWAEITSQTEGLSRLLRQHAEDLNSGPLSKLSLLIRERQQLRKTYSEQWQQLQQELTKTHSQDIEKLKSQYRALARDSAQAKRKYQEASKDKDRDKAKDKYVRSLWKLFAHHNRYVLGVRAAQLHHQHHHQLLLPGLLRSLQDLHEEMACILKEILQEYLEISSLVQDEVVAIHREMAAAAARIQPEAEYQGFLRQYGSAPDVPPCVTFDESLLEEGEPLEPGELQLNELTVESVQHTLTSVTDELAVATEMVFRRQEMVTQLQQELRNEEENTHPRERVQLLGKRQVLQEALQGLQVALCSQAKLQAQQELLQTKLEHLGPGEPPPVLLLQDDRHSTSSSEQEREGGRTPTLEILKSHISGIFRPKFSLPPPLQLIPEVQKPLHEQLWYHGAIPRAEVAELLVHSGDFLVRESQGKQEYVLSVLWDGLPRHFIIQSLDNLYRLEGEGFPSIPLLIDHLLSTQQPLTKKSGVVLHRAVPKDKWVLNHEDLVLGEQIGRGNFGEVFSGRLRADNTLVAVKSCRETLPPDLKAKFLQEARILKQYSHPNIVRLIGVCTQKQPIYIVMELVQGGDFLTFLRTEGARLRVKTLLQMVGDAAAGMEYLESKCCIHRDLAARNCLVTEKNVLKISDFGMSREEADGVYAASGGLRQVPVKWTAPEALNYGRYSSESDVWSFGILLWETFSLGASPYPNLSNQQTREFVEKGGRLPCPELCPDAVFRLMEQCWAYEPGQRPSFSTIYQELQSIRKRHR
Sequence of FGFR1 (P11362 whole entry, looked up): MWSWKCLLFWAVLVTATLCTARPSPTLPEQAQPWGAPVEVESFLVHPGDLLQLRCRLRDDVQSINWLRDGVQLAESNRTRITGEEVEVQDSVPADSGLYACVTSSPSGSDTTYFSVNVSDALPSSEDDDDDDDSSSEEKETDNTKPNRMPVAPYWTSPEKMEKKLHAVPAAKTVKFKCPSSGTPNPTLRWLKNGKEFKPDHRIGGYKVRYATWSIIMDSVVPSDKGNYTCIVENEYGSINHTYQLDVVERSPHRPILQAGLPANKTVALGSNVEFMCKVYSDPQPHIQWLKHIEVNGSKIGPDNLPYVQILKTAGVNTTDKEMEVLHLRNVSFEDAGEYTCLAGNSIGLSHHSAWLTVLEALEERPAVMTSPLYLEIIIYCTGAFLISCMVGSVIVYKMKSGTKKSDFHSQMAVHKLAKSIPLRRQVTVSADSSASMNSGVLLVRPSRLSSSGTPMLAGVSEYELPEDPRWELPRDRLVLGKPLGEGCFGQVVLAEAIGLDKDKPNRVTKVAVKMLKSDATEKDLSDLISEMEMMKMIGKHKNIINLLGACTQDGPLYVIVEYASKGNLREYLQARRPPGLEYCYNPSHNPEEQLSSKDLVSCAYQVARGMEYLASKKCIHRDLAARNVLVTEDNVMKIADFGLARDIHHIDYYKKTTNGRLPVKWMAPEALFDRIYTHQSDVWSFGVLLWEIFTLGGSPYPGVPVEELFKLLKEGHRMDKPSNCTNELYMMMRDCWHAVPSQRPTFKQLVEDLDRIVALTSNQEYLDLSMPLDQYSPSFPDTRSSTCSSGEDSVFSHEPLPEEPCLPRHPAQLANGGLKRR
Sequence of Grb2 SH2 (P62993 whole entry, looked up): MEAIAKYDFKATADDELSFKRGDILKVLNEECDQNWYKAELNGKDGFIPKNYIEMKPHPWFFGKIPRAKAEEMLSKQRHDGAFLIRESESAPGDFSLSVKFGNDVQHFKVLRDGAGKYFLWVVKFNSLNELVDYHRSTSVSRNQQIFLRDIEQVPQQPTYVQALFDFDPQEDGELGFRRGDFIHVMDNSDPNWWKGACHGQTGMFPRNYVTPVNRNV

Sequence | SH2 binding enrichment (SHP2-C SH2) | SH2 binding enrichment (c-Src SH2) | SH2 binding enrichment (Grb2 SH2) | phosphorylation enrichment (Jak2) | phosphorylation enrichment (c-Abl (mouse)) | phosphorylation enrichment (Fyn) | phosphorylation enrichment (Fes) | phosphorylation enrichment (AncSZ) | phosphorylation enrichment (Fer (mouse)) | phosphorylation enrichment (MERTK) | phosphorylation enrichment (FGFR1) | phosphorylation enrichment (EPHB1) | phosphorylation enrichment (EPHB2) | phosphorylation enrichment (Hck) | phosphorylation enrichment (c-Src) | phosphorylation enrichment (FGFR3)
PDDPDYSLVDD [PSTPIP2_Y323_N322D] | 0.576 | 0.665 | 0.642 | 2.02 | 1.04 | 0.569 | 1.97 | 1.76 | 0.894 | 0.668 | 0.568 | 1.13 | 0.963 | 0.707 | 0.648 | 1.01
PDGHEYIYVDP [PDGFRA_Y572] | 0.748 | 0.752 | 2.06 | 1.81 | 2.84 | 1.32 | 1.39 | 5.55 | 2.64 | 1.46 | 11.7 | 3.21 | 2.66 | 1.6 | 3.24 | 7.36
PDGVEYLKNDP [GRIN3A_Y831] | 0.479 | 0.578 | 0.929 | 0.929 | 0.709 | 0.851 | 1.36 | 1.54 | 0.75 | 0.389 | 0.537 | 0.693 | 0.524 | 1 | 0.496 | 0.771
PDKRIYQFTAS [SKAP2_Y197_A202S] | 0.613 | 0.642 | 0.953 | 0.637 | 0.551 | 0.826 | 0.684 | 0.691 | 0.802 | 0.846 | 0.831 | 0.491 | 0.629 | 0.698 | 0.765 | 0.649
PDMHSYMVRFN [GRIN2D_Y732_YF] | 0.548 | 0.474 | 0.909 | 1.14 | 0.811 | 0.629 | 0.931 | 0.991 | 0.494 | 0.651 | 0.711 | 0.488 | 0.69 | 0.641 | 1.15 | 0.807
PDSVDYPKKGY [CTSK_Y121_R122P] | 0.724 | 0.601 | 0.841 | 0.707 | 0.544 | 0.759 | 0.654 | 0.917 | 0.832 | 0.537 | 0.56 | 0.529 | 0.951 | 0.614 | 0.569 | 0.654
PEADKYCLTYA [FGG_Y300_R301C] | 0.778 | 0.687 | 0.882 | 1.38 | 0.917 | 0.691 | 1.2 | 1.27 | 0.735 | 0.477 | 0.486 | 0.722 | 0.599 | 0.601 | 0.821 | 1.09
PESCLYKESWL [IQGAP2_Y630] | 1.06 | 0.523 | 0.916 | 2.09 | 1.46 | 1.21 | 2.81 | 2.25 | 1.18 | 1.2 | 1.55 | 1.29 | 1.2 | 1.5 | 0.775 | 2.14
PEYVVYKPQME [CCRL2_Y170_F167Y] | 1.05 | 0.439 | 0.913 | 5.75 | 9.5 | 9.13 | 1.29 | 6.34 | 1.09 | 1.14 | 8.3 | 2.97 | 7.28 | 6.69 | 9.4 | 6.08
PGPQSYPIVTG [PAX5_Y299] | 0.861 | 0.646 | 1 | 0.533 | 0.5 | 0.68 | 0.736 | 0.611 | 0.744 | 0.586 | 0.504 | 0.484 | 0.538 | 0.565 | 0.4 | 0.685
PGVDRYSLGTS [C5orf42_Y1451] | 0.762 | 0.262 | 0.576 | 0.769 | 0.741 | 0.702 | 0.973 | 0.789 | 0.57 | 0.788 | 0.755 | 0.577 | 0.788 | 0.678 | 0.737 | 0.745
PINLFYLMDLS [ITGB2_Y131_D128N_YF] | 0.781 | 0.489 | 0.772 | 1.92 | 2.11 | 0.653 | 1.98 | 1.46 | 0.695 | 0.763 | 0.772 | 0.752 | 0.886 | 0.718 | 1.11 | 1.11
PKSWNYELPAT [PROM1_Y34_A31S] | 1.02 | 0.772 | 0.618 | 0.658 | 0.605 | 1.13 | 1.45 | 2.37 | 1.06 | 1.07 | 1.39 | 1.67 | 1.67 | 1.26 | 0.448 | 1.65
PLDGEYFTPQI [TP53_Y327_L330P] | 0.725 | 0.45 | 0.816 | 0.978 | 12.9 | 0.89 | 1.34 | 6.68 | 0.482 | 0.474 | 3.09 | 1.53 | 1.91 | 0.733 | 0.434 | 2.19
PLDGGYFTLQI [TP53_Y327_E326G] | 0.663 | 0.518 | 0.71 | 5.04 | 1.09 | 0.726 | 1.75 | 1.79 | 0.766 | 0.5 | 1.67 | 1.2 | 0.776 | 0.679 | 1.37 | 1.59
PLKALYLQQRP [ATM_Y2969] | 1.07 | 0.914 | 1.3 | 1.17 | 0.934 | 0.822 | 1.49 | 0.954 | 0.764 | 0.695 | 0.774 | 0.766 | 0.687 | 0.642 | 0.576 | 0.743
PLKFLYPNIDR [STAT1_Y668_K673R_YF] | 0.8 | 0.818 | 0.969 | 1.06 | 0.891 | 0.796 | 1.24 | 1.31 | 0.602 | 0.519 | 0.443 | 0.941 | 0.664 | 0.6 | 0.55 | 0.953
PLQDVYKIGGI [EEF1A2_Y254] | 0.574 | 0.429 | 1.03 | 1 | 1.92 | 2.3 | 0.981 | 1.01 | 0.679 | 0.522 | 0.505 | 2.02 | 0.572 | 1.04 | 4.34 | 0.793
PLRPDYQEPSR [DDR2_Y481] | 0.663 | 0.786 | 1.02 | 1.02 | 0.861 | 0.509 | 1.66 | 1.21 | 0.397 | 0.516 | 0.532 | 0.581 | 0.636 | 0.57 | 0.533 | 0.768
PNAYIYVVQLP [L1CAM_Y420_A415P] | 1.14 | 0.862 | 1.36 | 1.75 | 1.18 | 0.941 | 1.76 | 1.53 | 0.47 | 2.25 | 1.6 | 1.08 | 1.35 | 0.832 | 1.31 | 1.61
PNRILYGDFRQ [MYH6_Y717] | 0.878 | 0.568 | 0.918 | 0.862 | 0.658 | 6.85 | 1.02 | 0.823 | 0.5 | 0.622 | 0.501 | 0.538 | 0.731 | 4.43 | 5.52 | 0.688
PPAPRCHHSAV [LZTR1_Y119_Y119C] | 1.51 | 0.89 | 1.31 | 1.75 | 0.842 | 0.921 | 2.01 | 1.61 | 2.15 | 0.566 | 0.839 | 1.17 | 0.701 | 1.28 | 0.718 | 1.21
PPLMLYNPTTF [EGFR_Y270_YF] | 0.785 | 0.278 | 0.931 | 1.03 | 0.79 | 0.692 | 1.21 | 1.34 | 1.25 | 1 | 0.731 | 0.973 | 0.891 | 1.13 | 0.863 | 0.857
PPSGEYFGHCG [TRIP6_Y275_Q278H] | 0.713 | 0.599 | 1.06 | 0.999 | 0.904 | 0.698 | 1.38 | 1.69 | 0.668 | 0.529 | 0.698 | 0.85 | 1.02 | 0.983 | 0.509 | 1.18
PQAVRYIFTID [DCX_Y103_G100A_YF] | 3.09 | 1.54 | 1.53 | 0.806 | 0.863 | 0.639 | 1.76 | 1.15 | 0.524 | 0.595 | 1.01 | 1.29 | 0.59 | 0.673 | 0.385 | 0.841
PQAVTYAEVKH [LILRB4_Y360_K362E] | 32.9 | 2.73 | 0.83 | 0.867 | 0.763 | 5.58 | 1.03 | 0.872 | 0.804 | 0.617 | 0.692 | 1.94 | 1.16 | 4.17 | 4.89 | 0.625
PQDSAYHSGIQ [FLG_Y3940_S3935P] | 0.613 | 0.437 | 0.787 | 0.598 | 1.69 | 0.459 | 0.755 | 0.651 | 0.419 | 0.445 | 0.534 | 0.652 | 0.49 | 0.486 | 0.553 | 0.522
PQEVMYAQLDH [KIR3DL2_Y398_T397M] | 6.57 | 1.21 | 0.748 | 1.71 | 7.37 | 6.26 | 1.52 | 1.62 | 4.04 | 6.77 | 2.69 | 1.06 | 0.621 | 5.19 | 7.15 | 2.2
PRAEWYRDDLL [MYOM2_Y317_V321L] | 0.716 | 0.686 | 1.15 | 0.952 | 0.798 | 0.612 | 1.4 | 1.49 | 0.502 | 0.511 | 0.591 | 0.692 | 0.726 | 0.681 | 0.575 | 0.626
